Measurements as given in patent US20250011428A1 (Novartis, published 2025).

Legend:
[1] = molecular target: T1, hCD3epsilon-FC antigen (human, UniProt P07766 23-126); assay: SPR Biacore T200; hCD3epsilon-FC amine-coupled on CM5, IgG as analyte; parameters: unit not given here
T1 construct: immobilized by amine coupling on CM5; also called human CD3epsilon

[2] = molecular target: T2, hC1q (human, UniProt P02745 23-245; P02746 28-253; P02747 29-245); assay: SPR Biacore T200; IgG amine-coupled on CM5, hC1q as analyte; response normalized to parental (=100)
Experimental: (§1) Kinetics and binding capacity were measured on a BIAcore® T200 instrument (GE Healthcare, Glattbrugg, Switzerland) at room temperature, with proteins diluted in running buffer 10 mM NaP, 150 mM NaCl, 0.05% Tween 20, pH7.6. A CM5 sensor chip (Sensor Chip SA, GE Healthcare Life Sciences) was used to immobilized engineered immunoglobulins by amine coupling. Then, recombinant human hFcγR1a, or recombinant human hFcγR3a (F158V), or recombinant human hFcRn, or hC1q was used as the analyte.
(§2) Binding data were acquired by subsequent injection of analyte dilution series on the reference and measuring flow cells. Zero concentration samples (running buffer only) were included to allow double referencing during data evaluation. For data evaluation, doubled referenced sensorgrams were analyzed and the maximum response reached during the experiment was monitored. Maximum response describes the binding capacity of the surface in terms of the response at saturation. Finally, measured maximum responses were normalized to the one measured using parental immunoglobulin (not engineered).

[3] = molecular target: T3, recombinant human hFcRn (human, UniProt P55899 24-297; P61769 21-119); assay: SPR Biacore T200; IgG amine-coupled on CM5, hFcRn as analyte; response normalized to parental (=100)
T3 construct: FcRn is normally a heterodimer with it
Experimental: as §1, §2

[4] = molecular target: T4, recombinant human hFcγR1a (human, UniProt P12314 16-288, limits assumed); assay: SPR Biacore T200; IgG amine-coupled on CM5, receptor as analyte; response normalized to parental (=100);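 also: measured at room temperature in pH 7.6 phosphate buffer with Tween 20, double-referenced sensorgrams, maximum response taken as binding capacity at saturation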
T4 construct: recombinant, analyte in SPR; also called FcγRI
Experimental: as §1, §2

[5] = molecular target: T5, recombinant human hFcγR3a (F158V) (human, UniProt P08637 17-208); assay: as above
T5 construct: also called FcγRIII
Experimental: as §1, §2

[6] = molecular target: T1, hCD3epsilon-FC antigen; assay: SPR Biacore T200; hCD3epsilon-FC amine-coupled on CM5, IgG as analyte; 1:1 model, apparent KD (bivalent analyte)
Experimental: A CM5 sensor chip (Sensor Chip SA, GE Healthcare Life Sciences) was used to immobilize hCD3epsilon-FC antigen by amine coupling. Then, engineered anti-CD3 hIgG1 were used as the analyte.
Binding data were acquired by subsequent injection of analyte dilution series on the reference and measuring flow cells. Zero concentration samples (running buffer only) were included to allow double referencing during data evaluation. For data evaluation, doubled referenced sensorgrams were analyzed by applying a 1:1 binding model analysis to generate the equilibrium dissociation constant (KD). Binding constant described Table 7 are considered as apparent KD since immunoglobulins used as analyte are bivalent for the immobilized antigen. In addition, maximum response reached during the experiment was monitored. Maximum response describes the binding capacity of the surface in terms of the response at saturation. Finally, measured maximum responses were normalized to the one measured using parental immunoglobulin (not engineered).

[7] = molecular target: T2, hC1q; assay: SPR max response, normalized to parental (=100)
Experimental: as §1, §2

T4 sequence (P12314 16-288 limits assumed): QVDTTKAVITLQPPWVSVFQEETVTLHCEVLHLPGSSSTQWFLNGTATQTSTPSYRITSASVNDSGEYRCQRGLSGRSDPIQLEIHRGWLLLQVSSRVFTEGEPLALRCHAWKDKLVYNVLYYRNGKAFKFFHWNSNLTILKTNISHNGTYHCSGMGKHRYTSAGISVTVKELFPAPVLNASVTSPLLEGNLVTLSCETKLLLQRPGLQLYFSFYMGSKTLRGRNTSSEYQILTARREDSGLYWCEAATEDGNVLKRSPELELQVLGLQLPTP
T5 sequence (P08637 17-208 F176V): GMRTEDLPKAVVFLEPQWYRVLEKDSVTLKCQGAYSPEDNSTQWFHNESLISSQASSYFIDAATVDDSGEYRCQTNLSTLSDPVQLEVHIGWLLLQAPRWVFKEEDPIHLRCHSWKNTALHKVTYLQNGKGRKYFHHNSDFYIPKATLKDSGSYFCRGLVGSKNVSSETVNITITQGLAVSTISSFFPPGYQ
T2 sequence (P02745 23-245 limits assumed, chain 1 of 3): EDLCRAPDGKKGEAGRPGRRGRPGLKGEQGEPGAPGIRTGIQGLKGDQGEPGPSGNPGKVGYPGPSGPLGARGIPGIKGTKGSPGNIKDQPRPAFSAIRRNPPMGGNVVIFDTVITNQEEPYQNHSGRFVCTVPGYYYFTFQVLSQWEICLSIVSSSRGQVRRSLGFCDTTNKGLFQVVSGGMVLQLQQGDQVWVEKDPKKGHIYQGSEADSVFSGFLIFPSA
T2 sequence (P02746 28-253 limits assumed, chain 2 of 3): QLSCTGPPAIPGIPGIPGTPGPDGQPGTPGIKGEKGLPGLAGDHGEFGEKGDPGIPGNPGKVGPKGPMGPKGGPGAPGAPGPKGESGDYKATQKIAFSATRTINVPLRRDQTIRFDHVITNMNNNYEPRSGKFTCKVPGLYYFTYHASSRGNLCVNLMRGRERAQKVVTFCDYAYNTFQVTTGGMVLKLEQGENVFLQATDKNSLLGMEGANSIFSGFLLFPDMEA
T2 sequence (P02747 29-245 limits assumed, chain 3 of 3): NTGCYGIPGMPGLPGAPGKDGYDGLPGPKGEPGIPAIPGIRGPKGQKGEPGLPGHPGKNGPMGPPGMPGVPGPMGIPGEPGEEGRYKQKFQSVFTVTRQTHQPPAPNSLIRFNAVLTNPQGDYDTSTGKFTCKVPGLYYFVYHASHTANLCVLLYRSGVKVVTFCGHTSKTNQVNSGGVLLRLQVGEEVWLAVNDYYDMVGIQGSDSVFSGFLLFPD
T3 sequence (P55899 24-297 limits assumed, chain 1 of 2): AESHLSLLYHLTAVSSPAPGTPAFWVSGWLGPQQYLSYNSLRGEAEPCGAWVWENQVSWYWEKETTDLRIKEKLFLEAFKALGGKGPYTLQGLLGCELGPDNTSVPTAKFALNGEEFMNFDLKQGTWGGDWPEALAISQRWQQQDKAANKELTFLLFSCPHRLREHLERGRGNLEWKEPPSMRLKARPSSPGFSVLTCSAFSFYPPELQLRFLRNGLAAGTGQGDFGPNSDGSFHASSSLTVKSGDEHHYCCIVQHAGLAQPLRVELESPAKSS
T3 sequence (P61769 21-119 limits assumed, chain 2 of 2): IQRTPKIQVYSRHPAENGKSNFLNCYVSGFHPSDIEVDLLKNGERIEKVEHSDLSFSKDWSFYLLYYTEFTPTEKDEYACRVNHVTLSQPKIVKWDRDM
T1 sequence (P07766 23-126 limits assumed): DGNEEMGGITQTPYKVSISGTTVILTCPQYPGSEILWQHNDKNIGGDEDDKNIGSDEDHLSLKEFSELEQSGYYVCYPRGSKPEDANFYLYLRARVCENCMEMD

B1: CD3_WT (antibody, human IgG1, lambda)
heavy: not shown
light: QAVVTQEPSLTVSPGGTVTLTCRSSTGAVTTSNYANWVQQKPGQAPRGLIGGTNKRAPWTPARFSGSLLGDKAALTLSGAQPEDEAEYFCALWYSNLWVFGGGTKLTVLGQPKAAPSVTLFPPSSEELQANKATLVCLISDFYPGAVTVAWKADSSPVKAGVETTTPSKQSNNKYAASSYLSLTPEQWKSHRSYSCQVTHEGSTVEKTVAPTECS
notes: hIgG1, no Fc mutation; produced in HEK-293T-17SF; also called parental anti-CD3 IgG1; anti-CD3 monospecific hIgG1
Maximum response at 125 nM hIgG1 [1]: 392
Maximum response at 20 nM hC1q (RU) [2]: 100 RU
Maximum response at 1840 nM hFcRn (RU) [3]: 100 RU
Maximum response at 100 nM hFcγR1a (RU) [4]: 100 RU
Maximum response at 300 nM hFcγR3a F158V (RU) [5]: 100 RU
Kd [6]: 2.32 nM

B2: CD3_1 (antibody, human IgG1, lambda)
heavy: EVQLVESGGGLVQPGGSLKLSCAASGFTFNTYAMNWVRQASGKGLEWVGRIRSKYNNYATYYADSVKDRFTISRDDSKSTLYLQMNSLKTEDTAVYYCVRHGNFGNSYVSWFAYWGQGTLVTVSSASTKGPSVFPLAPSSKSTSGGTAALGCLVKDYFPEPVTVSWNSGALTSGVHTFPAVLQSSGLYSLSSVVTVPSSSLGTQTYICNVNHKPSNTKVDKRVEPKSCDKTHTCPPCPAPELCCHPRVFLFPPKPKDTLMISRTPEVTCVVTGLRDEDPEVKFNWYVDGVEVHNAKTKPREEQYCGCYSVVSVLTVLHQDWLNGKEYKCKVSNKALPAPIEKTISKAKGQPREPQVYTLPPSRDELTKNQVSLTCLVKGFYPSDIAVEWESNGQPENNYKTTPPVLDSDGSFFLYSKLTVDKSRWQQGNVFSCSVMHEALHNHYTQKSLSLSPGK
light: QAVVTQEPSLTVSPGGTVTLTCRSSTGAVTTSNYANWVQQKPGQAPRGLIGGTNKRAPWTPARFSGSLLGDKAALTLSGAQPEDEAEYFCALWYSNLWVFGGGTKLTVLGQPKAAPSVTLFPPSSEELQANKATLVCLISDFYPGAVTVAWKADSSPVKAGVETTTPSKQSNNKYAASSYLSLTPEQWKSHRSYSCQVTHEGSTVEKTVAPTECS
notes: hIgG1
Maximum response at 125 nM hIgG1 [1]: 371
Maximum response at 20 nM hC1q (RU) [2]: 5 RU
Maximum response at 100 nM hFcγR1a (RU) [4]: 2 RU
Maximum response at 300 nM hFcγR3a F158V (RU) [5]: 10 RU
Kd [6]: 2.06 nM

B3: CD3_10_YTE (antibody, human IgG1, lambda)
heavy: EVQLVESGGGLVQPGGSLKLSCAASGFTFNTYAMNWVRQASGKGLEWVGRIRSKYNNYATYYADSVKDRFTISRDDSKSTLYLQMNSLKTEDTAVYYCVRHGNFGNSYVSWFAYWGQGTLVTVSSASTKGPSVFPLAPSSKSTSGGTAALGCLVKDYFPEPVTVSWNSGALTSGVHTFPAVLQSSGLYSLSSVVTVPSSSLGTQTYICNVNHKPSNTKVDKRVEPKSCDKTHTCPPCPAPELLGGPSVFLFPPKPKDTLYITREPEVTCVVVDVSHEDPEVKFNWYVDGVEVHNAKTKPREEQYNSCYRVVSVLTVLHQDWLNGKEYKCKVSNKALPAPIEKTISKAKGQPREPQVYTLPPSRDELTKNQVSLTCLVKGFYPSDIAVEWESNGQPENNYKTTPPVLDSDGSFFLYSKLTVDKSRWQQGNVFSCSVMHEALHNHYTQKSLSLSPGK
light: QAVVTQEPSLTVSPGGTVTLTCRSSTGAVTTSNYANWVQQKPGQAPRGLIGGTNKRAPWTPARFSGSLLGDKAALTLSGAQPEDEAEYFCALWYSNLWVFGGGTKLTVLGQPKAAPSVTLFPPSSEELQANKATLVCLISDFYPGAVTVAWKADSSPVKAGVETTTPSKQSNNKYAASSYLSLTPEQWKSHRSYSCQVTHEGSTVEKTVAPTECS
notes: hIgG1
binding result [7]: no binding (tested: 20 nM hC1q)
Maximum response at 1840 nM hFcRn (RU) [3]: 280 RU

B4: CD3_5 (antibody, human IgG1, lambda)
heavy: EVQLVESGGGLVQPGGSLKLSCAASGFTFNTYAMNWVRQASGKGLEWVGRIRSKYNNYATYYADSVKDRFTISRDDSKSTLYLQMNSLKTEDTAVYYCVRHGNFGNSYVSWFAYWGQGTLVTVSSASTKGPSVFPLAPSSKSTSGGTAALGCLVKDYFPEPVTVSWNSGALTSGVHTFPAVLQSSGLYSLSSVVTVPSSSLGTQTYICNVNHKPSNTKVDKRVEPKSCDKTHTCPPCPAPELCCGPSVFLFPPKPKDTLMISRTPEVTCVVVDVSHEDPEVKFNWYVDGVEVHNAKTKPREEQYCSCYRVVSVLTVLHQDWLNGKEYKCKVSNKALPAPIEKTISKAKGQPREPQVYTLPPSRDELTKNQVSLTCLVKGFYPSDIAVEWESNGQPENNYKTTPPVLDSDGSFFLYSKLTVDKSRWQQGNVFSCSVMHEALHNHYTQKSLSLSPGK
light: QAVVTQEPSLTVSPGGTVTLTCRSSTGAVTTSNYANWVQQKPGQAPRGLIGGTNKRAPWTPARFSGSLLGDKAALTLSGAQPEDEAEYFCALWYSNLWVFGGGTKLTVLGQPKAAPSVTLFPPSSEELQANKATLVCLISDFYPGAVTVAWKADSSPVKAGVETTTPSKQSNNKYAASSYLSLTPEQWKSHRSYSCQVTHEGSTVEKTVAPTECS
notes: hIgG1
binding result [7]: no binding (tested: 20 nM hC1q)
Maximum response at 125 nM hIgG1 [1]: 365
Maximum response at 100 nM hFcγR1a (RU) [4]: 7 RU
Maximum response at 300 nM hFcγR3a F158V (RU) [5]: 22 RU
Kd [6]: 3.76 nM

B5: CD3_7 (antibody, human IgG1, lambda)
heavy: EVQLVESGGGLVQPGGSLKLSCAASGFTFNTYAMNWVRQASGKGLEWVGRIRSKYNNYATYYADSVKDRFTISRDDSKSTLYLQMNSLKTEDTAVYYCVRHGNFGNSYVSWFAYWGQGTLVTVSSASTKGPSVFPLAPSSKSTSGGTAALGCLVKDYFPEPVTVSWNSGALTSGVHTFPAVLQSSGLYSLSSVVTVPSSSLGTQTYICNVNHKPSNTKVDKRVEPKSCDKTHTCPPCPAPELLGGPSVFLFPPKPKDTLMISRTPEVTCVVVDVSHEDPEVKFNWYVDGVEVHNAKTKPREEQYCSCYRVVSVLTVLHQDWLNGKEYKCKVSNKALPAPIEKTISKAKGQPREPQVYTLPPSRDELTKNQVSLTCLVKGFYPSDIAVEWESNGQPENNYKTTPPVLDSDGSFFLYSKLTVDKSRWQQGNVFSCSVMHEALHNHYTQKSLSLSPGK
light: QAVVTQEPSLTVSPGGTVTLTCRSSTGAVTTSNYANWVQQKPGQAPRGLIGGTNKRAPWTPARFSGSLLGDKAALTLSGAQPEDEAEYFCALWYSNLWVFGGGTKLTVLGQPKAAPSVTLFPPSSEELQANKATLVCLISDFYPGAVTVAWKADSSPVKAGVETTTPSKQSNNKYAASSYLSLTPEQWKSHRSYSCQVTHEGSTVEKTVAPTECS
notes: hIgG1
Maximum response at 125 nM hIgG1 [1]: 367
Maximum response at 20 nM hC1q (RU) [2]: 2 RU
Maximum response at 1840 nM hFcRn (RU) [3]: 80 RU
Maximum response at 100 nM hFcγR1a (RU) [4]: 21 RU
Maximum response at 300 nM hFcγR3a F158V (RU) [5]: 5 RU
Kd [6]: 2.27 nM

B6: CD3_8_YTE (antibody, human IgG1, lambda)
heavy: EVQLVESGGGLVQPGGSLKLSCAASGFTFNTYAMNWVRQASGKGLEWVGRIRSKYNNYATYYADSVKDRFTISRDDSKSTLYLQMNSLKTEDTAVYYCVRHGNFGNSYVSWFAYWGQGTLVTVSSASTKGPSVFPLAPSSKSTSGGTAALGCLVKDYFPEPVTVSWNSGALTSGVHTFPAVLQSSGLYSLSSVVTVPSSSLGTQTYICNVNHKPSNTKVDKRVEPKSCDKTHTCPPCPAPELLCGPSVFLFPPKPKDTLYITREPEVTCVVVDVSHEDPEVKFNWYVDGVEVHNAKTKPREEQYNSTYRVVSVLTVLHQDWLNGKEYKCKVSNKALPAPIEKTISKAKGQPREPQVYTLPPSRDELTKNQVSLTCLVKGFYPSDIAVEWESNGQPENNYKTTPPVLDSDGSFFLYSKLTVDKSRWQQGNVFSCSVMHEALHNHYTQKSLSLSPGK
light: QAVVTQEPSLTVSPGGTVTLTCRSSTGAVTTSNYANWVQQKPGQAPRGLIGGTNKRAPWTPARFSGSLLGDKAALTLSGAQPEDEAEYFCALWYSNLWVFGGGTKLTVLGQPKAAPSVTLFPPSSEELQANKATLVCLISDFYPGAVTVAWKADSSPVKAGVETTTPSKQSNNKYAASSYLSLTPEQWKSHRSYSCQVTHEGSTVEKTVAPTECS
notes: hIgG1
binding result [7]: no binding (tested: 20 nM hC1q)
Maximum response at 1840 nM hFcRn (RU) [3]: 604 RU
Maximum response at 100 nM hFcγR1a (RU) [4]: 2 RU

B7: CD3_11 (antibody, human IgG1, lambda)
heavy: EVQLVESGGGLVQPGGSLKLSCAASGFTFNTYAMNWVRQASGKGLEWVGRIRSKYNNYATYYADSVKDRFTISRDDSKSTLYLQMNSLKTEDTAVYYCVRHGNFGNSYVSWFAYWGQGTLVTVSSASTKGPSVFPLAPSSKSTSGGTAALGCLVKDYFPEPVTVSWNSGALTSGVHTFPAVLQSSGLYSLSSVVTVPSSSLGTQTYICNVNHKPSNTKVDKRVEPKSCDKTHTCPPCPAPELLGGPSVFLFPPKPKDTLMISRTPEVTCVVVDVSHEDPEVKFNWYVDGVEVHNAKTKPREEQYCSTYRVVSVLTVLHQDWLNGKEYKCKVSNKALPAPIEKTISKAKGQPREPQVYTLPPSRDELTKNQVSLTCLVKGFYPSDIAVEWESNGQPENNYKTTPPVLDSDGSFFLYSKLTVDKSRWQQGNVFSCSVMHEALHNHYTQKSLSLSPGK
light: QAVVTQEPSLTVSPGGTVTLTCRSSTGAVTTSNYANWVQQKPGQAPRGLIGGTNKRAPWTPARFSGSLLGDKAALTLSGAQPEDEAEYFCALWYSNLWVFGGGTKLTVLGQPKAAPSVTLFPPSSEELQANKATLVCLISDFYPGAVTVAWKADSSPVKAGVETTTPSKQSNNKYAASSYLSLTPEQWKSHRSYSCQVTHEGSTVEKTVAPTECS
notes: hIgG1
binding result [7]: no binding (tested: 20 nM hC1q)
Maximum response at 1840 nM hFcRn (RU) [3]: 92 RU
Maximum response at 100 nM hFcγR1a (RU) [4]: 19 RU

B8: CD3_6 (antibody, human IgG1, lambda)
heavy: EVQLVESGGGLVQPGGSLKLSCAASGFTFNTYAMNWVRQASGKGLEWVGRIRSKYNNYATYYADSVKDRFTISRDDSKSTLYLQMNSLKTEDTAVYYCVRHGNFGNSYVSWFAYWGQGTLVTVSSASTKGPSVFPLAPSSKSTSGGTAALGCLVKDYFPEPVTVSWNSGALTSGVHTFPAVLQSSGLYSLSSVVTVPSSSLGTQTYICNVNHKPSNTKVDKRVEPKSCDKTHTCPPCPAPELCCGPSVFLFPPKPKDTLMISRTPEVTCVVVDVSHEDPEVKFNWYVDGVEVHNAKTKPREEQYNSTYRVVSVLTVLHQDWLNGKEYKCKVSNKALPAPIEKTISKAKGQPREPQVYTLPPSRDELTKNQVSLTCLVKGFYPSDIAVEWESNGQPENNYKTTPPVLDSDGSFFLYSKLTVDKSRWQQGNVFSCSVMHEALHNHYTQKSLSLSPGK
light: QAVVTQEPSLTVSPGGTVTLTCRSSTGAVTTSNYANWVQQKPGQAPRGLIGGTNKRAPWTPARFSGSLLGDKAALTLSGAQPEDEAEYFCALWYSNLWVFGGGTKLTVLGQPKAAPSVTLFPPSSEELQANKATLVCLISDFYPGAVTVAWKADSSPVKAGVETTTPSKQSNNKYAASSYLSLTPEQWKSHRSYSCQVTHEGSTVEKTVAPTECS
notes: hIgG1
Maximum response at 125 nM hIgG1 [1]: 338
Maximum response at 20 nM hC1q (RU) [2]: 33 RU
Maximum response at 1840 nM hFcRn (RU) [3]: 136 RU
Maximum response at 100 nM hFcγR1a (RU) [4]: 13 RU
Maximum response at 300 nM hFcγR3a F158V (RU) [5]: 17 RU
Kd [6]: 2.38 nM
